Patent US20250277030A1 (Zymeworks, published 2025)
Where a chain is given by its changes, count along the chain named. Blank lines part the entries; values can stand above or below the binder they belong to.

Tests used:
[1] = target: T1, KLH (Sigma-Aldrich, H8283); test: non-specific binding ELISA, KLH coated at 5 µg/mL, antibody at 100 nM
T1 construct: also called keyhole limpet hemocyanin
Method: NS-ELISA was carried out in Corning®96-well EIA/RIA Easy Wash™ Clear Flat Bottom Polystyrene High Bind Microplate coated overnight at 4° C. with 50 μL of Heparin (Sigma, H3149) diluted with 50 mM sodium carbonate pH 9.6 to a final concentration of 250 μg/mL. The plate was incubated for 2 days at room temperature, wells that were coated with heparin were not covered to allow air dry. […] 50 μL each of insulin, KLH, dsDNA and ssDNA were added to a 96 well plate, followed by the incubation at 37° C. for 2 h. The coating materials were removed, and the plate was blocked with 200 μL of Gibco™ PBS pH7.4, 0.1% Tween®20, and incubated for 1 h at room temperature with shaking at 200 rpm. The plate was washed 3 times with Gibco™ PBS pH7.4, 0.1% Tween 20. […] Reactions were stopped after approximately 10 minutes by adding 100 μL of 1 M HCl to each well, and absorbance was read at 450 nm. Binding scores were calculated as the ratio of the ELISA signal of the antibody (antibody-treated) to the signal of a well containing buffer instead of the primary antibody (untreated). The cutoffs considered for each binding molecule (ssDNA, KLH, insulin, dsDNA and heparin) were internally calculated, based on the average of Zymeworks Inc. produced antibodies and antibodies benchmarks published in the literature.

[2] = target: T2, human sodium-dependent phosphate transporter 2B (NaPi2b) (human, UniProt O95436 1-690); test: flow cytometry, IGROV-1 cells (endogenous NaPi2b), 24 h at 4 °C
T2 construct: UniProt ID is given as 095436 [sic]; also called hNaPi2b; Hu NaPi2b
T2 sequence: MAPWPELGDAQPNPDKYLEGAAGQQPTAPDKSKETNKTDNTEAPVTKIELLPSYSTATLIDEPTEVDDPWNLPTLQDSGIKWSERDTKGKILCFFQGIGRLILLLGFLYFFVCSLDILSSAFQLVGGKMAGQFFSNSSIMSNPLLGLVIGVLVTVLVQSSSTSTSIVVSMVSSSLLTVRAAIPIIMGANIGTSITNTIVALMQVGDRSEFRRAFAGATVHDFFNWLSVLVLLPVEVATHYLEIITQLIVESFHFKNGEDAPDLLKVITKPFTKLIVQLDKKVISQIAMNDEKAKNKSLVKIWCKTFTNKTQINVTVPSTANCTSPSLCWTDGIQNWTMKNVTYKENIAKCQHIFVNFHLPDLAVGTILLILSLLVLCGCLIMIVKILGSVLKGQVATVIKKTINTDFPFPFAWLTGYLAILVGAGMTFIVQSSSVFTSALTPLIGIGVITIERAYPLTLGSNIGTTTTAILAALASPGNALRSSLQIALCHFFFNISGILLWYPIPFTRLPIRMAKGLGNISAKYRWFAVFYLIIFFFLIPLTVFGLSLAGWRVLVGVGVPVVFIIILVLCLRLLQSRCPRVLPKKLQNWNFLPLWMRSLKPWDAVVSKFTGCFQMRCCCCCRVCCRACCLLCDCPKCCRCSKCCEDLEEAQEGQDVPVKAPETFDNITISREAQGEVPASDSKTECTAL
Method: (§1) IGROV-1 cells express endogenous NaPi2b at a high level.
(§2) Briefly, cells were seeded at 50,000 cells/well in conical-bottom 96-well plates and treated with test antibody for 24 hours at 4° C. to prevent internalization. […] Following incubation, cells were washed and stained with anti-Human IgG Fc AF647 conjugate (Jackson Immuno Research Labs, West Grove, PA; Cat. No. 109-605-098) at 4° C. for 30 min. Following incubation and washing, fluorescence was detected by flow cytometry on a BD LSRFortessa™ Cell Analyzer (BD Biosciences, Franklin Lake, NJ) with 1,000 minimum events collected per well. The AF647/APC-A GeoMean (fluorescence signal geometric mean, proportional to anti-Human AF647 binding) was calculated for the live cell population using FlowJo™ Version 10.8.1 (BD Biosciences, Franklin Lake, NJ) and plotted for each test antibody using GraphPad Prism Version 9 (GraphPad Software, San Diego, CA).

[3] = target: T2, human sodium-dependent phosphate …; test: flow cytometry, IGROV-1 cells (endogenous NaPi2b), 24 h at 4 °C; apparent Kd
Method: as §1, §2

[4] = target: T2, human sodium-dependent phosphate …; test: KinExA, IGROV-1 cells (endogenous NaPi2b) as titrant, monovalent antibody constant at 50 and 500 pM, N-curve analysis
Method: (§3) The cell-binding assay was set up using the antibody constructs or variants as constant binding partner at two different concentrations of 50 pM and 500 pM. For the titration curve with antibody variants fixed at 50 pM, at least 10 million IGROV-1 cells were used as titrant. For the titration curve with antibody variants fixed at 500 pM, at least 5 million cells were used as titrant. The antibody variants and cells were mixed in PBS pH 7.4, 1 mg/mL BSA, 0.2% NaN₃ and incubated at 4° C. for 7 days with gentle rotation until equilibrium was reached. After incubation, the mixture of antibody variants and cells was centrifuged to separate the cells from the unbound free antibody variants. The free antibody variants were loaded onto the KinExA 3200 (Sapidyne, Boise, Idaho) with biotinylated—anti-human IgG PMMA as solid phase and 0.5 μg/mL of Alexa 647 goat anti-human IgG (Jackson ImmunoResearch, West Grove, PA) as detection antibody.
(§4) N-curve analysis was used to calculate the affinity and receptor expression level with the concentrations of antibody variant as reference point.

[5] = target: T2, human sodium-dependent phosphate …; test: KinExA, IGROV-1 cells, monovalent format
Method: The binding affinity of anti-NaPi2b antibody constructs was assessed by Kinexa in the endogenous NaPi2b-expressing cell line, IGROV-1.
as §3, §4

[6] = target: T2, human sodium-dependent phosphate …; test: flow cytometry, HCC-78 cells (endogenous NaPi2b)
Method: (§5) Briefly, HEK293-6e cells were transfected for ˜24 hours to transiently express human NaPi2b, cynomolgus or mouse NaPi2b, at 1 μg of DNA per 1 million cells. Following transfection, 50,000 cells per well were seeded in V-bottom 96-well plates and incubated with 200 nM of primary antibody for 18-24 hours at 4° C. to prevent internalization. Post-incubation, cells were washed and stained with anti-Human IgG Fc AF647 conjugate (Jackson Immuno Research Labs, West Grove, PA, Cat. No. 109-605-098, Lot. No. 124868) at 4° C. for 1 hour. Following staining and washing, fluorescence was detected by flow cytometry on BD LSRFortessa™ Cell Analyzer (BD Biosciences, Franklin Lake, NJ) with 10,000 minimum events collected per well. The AF647/APC-A GeoMean (fluorescence signal geometric mean, proportional to anti-Human AF647 binding) was calculated for the live singlet cell population for each primary antibody using FlowJo™ v8 software (BD Biosciences, Franklin Lake, NJ). The Bmax and Kd of each primary antibody were calculated using GraphPad Prism Version 9 (GraphPad Software, San Diego, CA)
(§6) The ability of ADCs to bind to cells expressing NaPi2b was assessed. […] Binding to endogenous high NaPi2b-expressing cell lines IGROV-1 and HCC-78 was assessed by flow cytometry according to methods described in Example 5.

[7] = target: T2, human sodium-dependent phosphate …; test: flow cytometry on IGROV-1 cells (endogenous NaPi2b), 4 C, anti-human IgG Fc AF647 detection
Method: as §5, §6

[8] = target: T2, human sodium-dependent phosphate …; test: flow cytometry, HCC-78 cells (endogenous NaPi2b); apparent Kd
Method: as §5, §6

[9] = target: T2, human sodium-dependent phosphate …; test: flow cytometry, IGROV-1 cells (endogenous NaPi2b)
Method: as §5, §6

[10] = target: T2, human sodium-dependent phosphate …; test: cell-based or functional assay
[11] = target: T2, human sodium-dependent phosphate …; test: flow cytometry, IGROV-1 cells (endogenous NaPi2b); apparent Kd
Method: as §5, §6

[12] = target: T2, human sodium-dependent phosphate …; test: flow cytometry on HCC-78 cells (endogenous NaPi2b), 4 C, anti-human IgG Fc AF647 detection
Method: as §5, §6

[13] = target: T2, human sodium-dependent phosphate …; test: flow cytometry on IGROV-1 cells (endogenous NaPi2b), 24 h at 4 C, anti-human IgG Fc AF647 detection
Method: as §1, §2

NS-ELISA binding score (ratio of signal between antibody-treated and untreated) [1]: 1.34 ratio
Bmax (MFI) [2]: 47800 MFI
Kd [3]: 1.6 nM
B1: v29452 humanized anti-NaPi2b antibody (H1L3) (antibody, human IgG1, kappa, V domains shown)
VH: QVQLVQSGAEVKKPGASVKVSCKASGFTFTSYNVHWVRQAPGQGLEWMGAISPGNGDLSYAQKFQGRVTMTRDTSTSTVYMELSSLRSEDTAVYYCARGRTGMGAVDYWGQGTLVTVSS
VL: DVQMTQSPSSLSASVGDRVTITCRASQDVYSYLNWYQQKPGKAVKLLIYYTSRLQSGVPSRFSGSGSGTDYTLTISSLQPEDIATYYCQQYNIFPWTFGQGTKLEIKR

Kd [4]: 0.297 nM
fold lower binding affinity than chimeric parental antibody construct (v29814) [5]: ~2 fold
B2: v36123, monovalent format of humanized antibody variant 29452 (antibody, V domains shown)
VH: B1 VH
VL: DVQMTQSPSSLSASVGDRVTITCRASQDVYSYLNWYQQKPGKAVKLLIYYTSRLQSGVPSRFSGSGSGTDYTLTISSLQPEDIATYYCQQYNIFPWTFGQGTKLEIK
notes: Only said to be the monovalent format of v29452; also called v36123 (VH1/VL3)

Bmax [6]: 21800
EC50 (read off the curve) [7]: ~0.7 nM
Kd [8]: 2.27 nM
Bmax (MFI) [9]: 77000 MFI
Kd [11]: 0.67 nM
B3: v29456-DL1, v29456 conjugated to MC-GGFG-AM-DXd1 (DAR 8) (antibody, human IgG1, kappa)
heavy: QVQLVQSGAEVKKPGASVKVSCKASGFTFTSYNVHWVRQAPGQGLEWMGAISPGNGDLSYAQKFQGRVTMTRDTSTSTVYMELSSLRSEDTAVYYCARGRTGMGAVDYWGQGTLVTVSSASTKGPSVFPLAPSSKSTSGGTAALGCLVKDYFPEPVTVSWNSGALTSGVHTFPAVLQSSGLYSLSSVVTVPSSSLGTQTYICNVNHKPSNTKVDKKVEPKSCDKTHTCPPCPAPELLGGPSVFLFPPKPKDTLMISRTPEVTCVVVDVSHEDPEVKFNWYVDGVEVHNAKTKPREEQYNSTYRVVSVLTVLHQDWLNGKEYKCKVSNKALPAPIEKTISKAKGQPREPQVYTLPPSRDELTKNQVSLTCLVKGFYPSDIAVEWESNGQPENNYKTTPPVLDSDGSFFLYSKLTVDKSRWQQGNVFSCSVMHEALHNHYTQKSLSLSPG
light: DVQMTQSPSSLSASVGDRVTITCRASQDVYSYLNWYQQKPGKAVKLLIYYTSRLQSGVPSRFSGSGSGTDYTLTISSLQPEDFATYYCQQYNIFPWTFGQGTKLEIKRTVAAPSVFIFPPSDEQLKSGTASVVCLLNNFYPREAKVQWKVDNALQSGNSQESVTEQDSKDSTYSLSSTLTLSKADYEKHKVYACEVTHQGLSSPVTKSFNRGEC
modifications: MC-GGFG-AM-DXd1 (DL1) on cysteines freed by reduction; positions not given; MC-GGFG-AM-DXd1 (DL1) on cysteines freed by reduction; positions not given; DAR 8 for the whole antibody
notes: also called v29456-MC-GGFG-AM-DXd1
In vitro cytotoxicity EC50 (nM), HCC-78 [10]: 0.51 nM
In vitro cytotoxicity EC50 (nM), IGROV-1 [10]: 1.14 nM

Kd [4]: 0.283 nM
fold lower binding affinity than chimeric parental antibody construct (v29814) [5]: ~2 fold
B4: v36124, monovalent format of humanized antibody variant 29456 (antibody, V domains shown)
VH: B1 VH
VL: B2 VL with I83F
notes: Only said to be the monovalent format of v29456; also called v36124 (VH1/VL2)

Bmax [6]: 20400
Kd [8]: 2.32 nM
Bmax (MFI) [9]: 81400 MFI
EC50 (read off the curve) [12]: ~2 nM
Kd [11]: 0.77 nM
B5: v29456-DL2, v29456 conjugated to MT-VC-Compound 1 (DAR 4) (antibody, human IgG1, kappa)
heavy: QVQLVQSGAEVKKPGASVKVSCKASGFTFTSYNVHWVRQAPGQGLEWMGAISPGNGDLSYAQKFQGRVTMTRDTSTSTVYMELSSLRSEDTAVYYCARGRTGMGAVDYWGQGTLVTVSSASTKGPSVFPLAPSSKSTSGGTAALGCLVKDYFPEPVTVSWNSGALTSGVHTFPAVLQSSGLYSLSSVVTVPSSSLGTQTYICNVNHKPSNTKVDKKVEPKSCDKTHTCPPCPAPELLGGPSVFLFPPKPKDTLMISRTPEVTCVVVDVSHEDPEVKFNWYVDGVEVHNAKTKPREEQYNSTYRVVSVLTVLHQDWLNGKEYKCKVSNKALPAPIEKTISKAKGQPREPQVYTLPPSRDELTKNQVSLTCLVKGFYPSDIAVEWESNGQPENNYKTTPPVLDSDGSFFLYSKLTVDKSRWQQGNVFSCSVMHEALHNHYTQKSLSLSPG
light: B3 light
modifications: MT-VC-Compound 1 (DL2) on cysteines freed by reduction; positions not given; MT-VC-Compound 1 (DL2) on cysteines freed by reduction; positions not given; DAR 4 for the whole antibody
notes: also called v29456-MT-VC-Compound 1
In vitro cytotoxicity EC50 (nM), HCC-78 [10]: 0.06 nM
In vitro cytotoxicity EC50 (nM), IGROV-1 [10]: 0.08 nM
In vitro cytotoxicity EC50 (nM), OVCAR-3 [10]: 0.01 nM

EC50 (read off the curve) [13]: ~1 nM
Bmax (MFI) [2]: 41200 MFI
Kd [3]: 1.22 nM
B6: v18992-DL2, MX35 conjugated to MT-VC-Compound 1 (DAR 3) (antibody, human IgG1, kappa)
heavy 1: GQVQLVQSGAEVVKPGASVKMSCKASGYTFTGYNIHWVKQAPGQGLEWIGAIYPGNGDTSYKQKFRGRATLTADTSTSTVYMELSSLRSEDSAVYYCARGETARATFAYWGQGTLVTVSSASTKGPSVFPLAPSSKSTSGGTAALGCLVKDYFPEPVTVSWNSGALTSGVHTFPAVLQSSGLYSLSSVVTVPSSSLGTQTYICNVNHKPSNTKVDKKVEPKSCDKTHTCPPCPAPELLGGPSVFLFPPKPKDTLMISRTPEVTCVVVDVSHEDPEVKFNWYVDGVEVHNAKTKPREEQYNSTYRVVSVLTVLHQDWLNGKEYKCKVSNKALPAPIEKTISKAKGQPREPQVYVYPPSRDELTKNQVSLTCLVKGFYPSDIAVEWESNGQPENNYKTTPPVLDSDGSFALVSKLTVDKSRWQQGNVFSCSVMHEALHNHYTQKSLSLSPG
heavy 2: not shown
light: GDIQMTQSPSSLSASVGDRVTITCSASQDIGNFLNWYQQKPGKTVKVLIYYTSSLYSGVPSRFSGSGSGTDYTLTISSLQPEDFATYYCQQYSKLPLTFGQGTKLELKRTVAAPSVFIFPPSDEQLKSGTASVVCLLNNFYPREAKVQWKVDNALQSGNSQESVTEQDSKDSTYSLSSTLTLSKADYEKHKVYACEVTHQGLSSPVTKSFNRGEC
modifications: MT-VC-Compound 1 (DL2) on cysteines freed by reduction; positions not given; MT-VC-Compound 1 (DL2) on cysteines freed by reduction; positions not given; DAR 3 for the whole antibody
notes: also called MX35 Compound 1 ADC; MX35-DL2 ADC
In vitro cytotoxicity EC50 (nM), HCC-78 [10]: 0.13 nM
In vitro cytotoxicity EC50 (nM), IGROV-1 [10]: 0.11 nM
In vitro cytotoxicity EC50 (nM), OVCAR-3 [10]: 0.02 nM

EC50 (read off the curve) [13]: ~0.8 nM
Bmax (MFI) [2]: 43700 MFI
Kd [3]: 0.84 nM
B7: v23855, parental mouse-human chimeric anti-NaPi2b IgG1/kappa antibody (antibody, V domains shown)
VH: QAYLQQSGAELVRPGASVKMSCKASGFTFTSYNVHWVKQTPRQGLEWIAAISPGNGDLSYNQRFKDKATLTVDRSSSTAYMQLSGLTSEDSAVYFCARGRTGMGAVDYWGQGTSVTVSS
VL: DVQMTQTASSLSASLGDRVTISCRASQDVYSYLNWYQQKPHGTVKLLIYYTSRLQSGVPSRFTGSGSGTDYSLTISNLEPEDIATYYCQQYNIFPWTFGGGTKLEIKR
notes: Full-size antibody: mouse VH/VL appended to human IGHG1*01 CH1-hinge-CH2-CH3 (ends at G446) and IGKC*01; also called parental chimeric
